According to paper PMC4387078:

Legend:
purified protein [1] = substrate: O=C1O[C@H]([C@@H](O)CO)C(O)=C1O; assay: purified protein; settings: 0.1 M sodium phosphate
[2] = substrate: Oc1ccc(O)cc1; assay: spectrophotometric laccase assay, product formation; format: biochemical, Drosophila melanogaster; settings: pH 7.0
[3] = substrate: NCCc1ccc(O)c(O)c1; assay: as above; format: biochemical, Drosophila melanogaster; settings: pH 7.0
[4] = substrate: Oc1ccc(O)cc1; assay: as above; format: biochemical, Anopheles gambiae; settings: pH 7.0
[5] = substrate: NCCc1ccc(O)c(O)c1; assay: as above; format: biochemical, Anopheles gambiae; settings: pH 7.0
purified protein [6] = substrate: O=C1O[C@H]([C@@H](O)CO)C(O)=C1O; assay: purified protein; format: biochemical, Anopheles gambiae; settings: 0.1 M sodium phosphate, pH 7.0, allosteric sigmoidal fit
[7] = substrate: Oc1ccc(O)cc1; assay: spectrophotometric laccase assay, product formation; format: biochemical, Trametes versicolor; settings: pH for this enzyme not stated
[8] = substrate: NCCc1ccc(O)c(O)c1; assay: as above; format: biochemical, Trametes versicolor; settings: pH for this enzyme not stated
[9] = pH 7.0, allosteric sigmoidal fit

B1: DmMCO1T (Drosophila melanogaster) (protein)
chain: DIWTAEWYRNHPCNRDCQVGAEPMTCRYKFVVEWYQTFSKACYDCPRNLTDCSRPHCVMGDGLERSITVVNRMMPGPAIEVCEGDEIVVDVKNHLLGESTSIHWHGLHQKKTPYMDGVPHITQCPITPHATFRYSFPADLSGTHFWHSHTGMQRGDGVFGALIIRKPKTAEPHGGLYDFDLSEHVMIVQDWIHDTGASIFSYHHHSRGDNKPHNLLVNGKGRYYNRIWAEAKQAHRRAEERTTQPVEPLPKSQVDFVQTLPRQARLAKTNTTKLFPVNSRQKRGNLNEIPLELVPHQIYTVRRGFRYRFRIINAEYLNCPIVVSIDGHNLTAINSDGFDIEAMDVGSIVTYSGERFDFVLNANLEVGNYWIRLKGLMDCSEVFTSAFQVAILRYEGAPDEEPTAELSYGHKAEGIELNVMNRGPGYPDTKTVAEMRALPIYDHVSGIDHDTLKPEADYKFFIYYDFYTKNNPDFHDKDLYAMDMEMTQQNRLYTPQLNHITLNFPSLALLPSRSQLKDSDFCNETSLMDQGIDCRQEFCKCHHVLQVPLGAVVEMIIVDEGFQYYANHPFHLHGNAFRVMGLERLGENVTVEMIKQLDQFNLLKRNLDNPPVKDTVTIPDGGYTIIRFEASNPGYWLFHCHIEFHAEIGMALVFKVGNDDQMVPVPENFPTCGDYNPDLRSDGGTTEDSGSSKPITATPPNTGGGGSG
K0.5 (purified protein [1]; [9]): 0.29 ± 0.05 mM
kcat (purified protein [1]; [9]): 42.8 ± 5.25 s⁻¹
kcat/Km (purified protein [1]; [9]): 147000 M⁻¹ s⁻¹
Km [2]: 14.4 ± 0.91 mM
kcat [2]: 1.03 ± 0.035 s⁻¹
kcat/Km [2]: 66.7 M⁻¹ s⁻¹
Km [3]: 7.0 ± 0.93 mM
kcat [3]: 0.317 ± 0.0183 s⁻¹
kcat/Km [3]: 50 M⁻¹ s⁻¹

B2: AgMCO1T (Anopheles gambiae) (protein)
chain: VEPEEGVDFYEELSYDNHPCKRACTLGRKPETCYYRFRLEWYRTLSKACYNCPYNATDCERPHCITGDGVRRNVAVINRMMPGPAIEVCENDIIVVDVENHLMGESTTIHWHGLHQRRTPYMDGVPHVSQCPISPGTTFRYTFRADNPGTHFWHSHTGMQRGDGAFGALIIRKDNDIQELLYDHDLSEHVITVQDWGHEQGVSLFASHHHSTGDNKPPNLLINGRGKYFQRFAKTTPLTTTTTSTEEPALEPETIMAVEPESTTLMEELPTTTVPITDAITPDDTELLQASSNTNLKTVLRAEEVRHRTKRQSRTVNFNAIVVPESKHIPLKVFHVDKGRRYRFRLINAEFLNCPVELSIENHNLTVIASDGFGIQPLEDLGSFVSYAGERFDFIVKANQPIGNYLIRFRGLMDCDERFTSAYQFAVLRYRGAPTDTEYESWPPYDYEAPGVQLNSLNRGPGAENVITIAETSALDQEDLLLLRNETDYKFYVYYDFYGKDNPHFHVPSLYGFQQVVNNTNRLYTPQLNHISMRMPPVPFLPGKDVLDESQFCNETSVRDRNCRQEFCECSHVLQIPLHATVEMVMIDEGFTFDANHPFHLHGHAFRVVGMDRVSRNTTIEDIRRMDEEGRLPRRLKRAPIKDTVTIPDGGYTIIRFIANNPGYWLFHCHIEFHAEIGMSLVLKVGDSSEMLPAPANFPTCYDFKPKLGQLGSGGA
Km [4]: 31.9 ± 3.75 mM
kcat [4]: 1.58 ± 0.13 s⁻¹
kcat/Km [4]: 50 M⁻¹ s⁻¹
Km [5]: 35.2 ± 3.59 mM
kcat [5]: 0.258 ± 0.0183 s⁻¹
kcat/Km [5]: 6.67 M⁻¹ s⁻¹
K0.5 (purified protein [6]): 0.12 ± 0.02 mM
kcat (purified protein [6]): 15.3 ± 1.4 s⁻¹
kcat/Km (purified protein [6]): 126000 M⁻¹ s⁻¹

B3: AgMCO3 (Anopheles gambiae) (protein)
chain: QSWLNTLLEQSNGTLDVSTFPGEQCLRECDNTQPRICHFSWTMEHYHVMGPACRDCAKGNHTDCYHPACITADGVERGVMSLNRKIPGPTISVCRHDLIVVDITNAMAGTSAAIHWHGLHQRATPYMDGVPFITQCPIGFGNTFRYAFLATEPGTQFYHSHSGHHKVNGHYGALIVREPKRVDPNGDLYHYDTPAHVILGSDWMHIDGEMFMPGLPSAGGIMPINLLINGKGTYHDPKKNETTQTPLEVYTVRRGARFRFRFINAASHVCPLQLQIEDHMMEVIASDSFHLQPRKVDTLVSTSGERYDFVLEANGVKDTYWVRLRSLGPCADLQLEQFAVLRYTTGPFINDAFPTGAPPTYEEPFRNVATANHPNATCGRPEFGDYCITDFQAYDTDEDVINGVPDHQLTFGFYNYPVSFESMFESNRYEHYMNIYGSVMMQGAINNISLAYPPFSLLTQPEKIRDDTFCDEDNRPDSCSDRQLCTCTHRVKINLGDIVELYILDLTPSVNDLNHPFHLHGYQMFVMEMSQDRRVPITLEIAQNIARQRLLSRNTVALPPRKDTVSIPSRGYARVRFRADNPGFWLMHCHYEWHTAVGMALVLQVGETSEMVKAPADFPKCDSYTPAVGHLLQGSL
K0.5 (purified protein [1]; pH 7.0, Michaelis-Menten fit): 0.64 ± 0.26 mM
kcat (purified protein [1]; pH 7.0, Michaelis-Menten fit): 2.47 s⁻¹
kcat/Km (purified protein [1]; pH 7.0, Michaelis-Menten fit): 3880 M⁻¹ s⁻¹

B4: TvLac-α (Trametes versicolor) (protein)
chain: AIGPVASLVVANAPVSPDGFLRDAIVVNGVVPSPLITGKKGDRFQLNVDDTLTNHSMLKSTSIHWHGFFQAGTNWADGPAFVNQCPIASGHSFLYDFHVPDQAGTFWYHSHLSTQYCDGLRGPFVVYDPKDPHASRYDVDNESTVITLTDWYHTAARLGPRFPLGADATLINGLGRSASTPTAALAVINVQHGKRYRFRLVSISCDPNYTFSIDGHNLTVIEVDGINSQPLLVDSIQIFAAQRYSFVLNANQTVGNYWVRANPNFGTVGFAGGINSAILRYQGAPVAEPTTTQTTSVIPLIETNLHPLARMPVPGSPTPGGVDKALNLAFNFNGTNFFINNATFTPPTVPVLLQILSGAQTAQDLLPAGSVYPLPAHSTIEITLPATALAPGAPHPFHLHGHAFAVVRSAGSTTYNYNDPIFRDVVSTGTPAAGDNVTIRFQTDNPGPWFLHCHIDFHLDAGFAIVFAEDVADVKAANPVPKAWSDLCPIYDGLSEANQ
Km [7]: 0.038 ± 0.006 mM
kcat [7]: 32.7 ± 1.22 s⁻¹
kcat/Km [7]: 861000 M⁻¹ s⁻¹
Km [8]: 0.055 ± 0.005 mM
kcat [8]: 11.5 ± 0.18 s⁻¹
kcat/Km [8]: 210000 M⁻¹ s⁻¹
